The source of these data is article PMC4634812, “Characterization of proliferating cell nuclear antigen (PCNA) from pathogenic yeast Candida albicans and its functional analyses in S. Cerevisiae” (BMC Microbiology, 2015).

Series [1] concerns the target Candida albicans PCNA G178S mutant (Candida albicans SC5314) (UniProt Q5AMN0). The experiment in a line: cross-linking; about 20 μg protein in 20 mM HEPES pH 7.5 with glutaraldehyde, 5 min at 37 °C, then 12 % SDS-PAGE.
Series [2] concerns the molecule itself. As to the kind of experiment: native gel or EMSA; 12 % non-denaturing polyacrylamide gel, ~1 μg of each purified protein, Coomassie stain. A general note: Mobility shift assays separate free from complexed probe on a gel.
The target of series [3] is T1, Yeast DNA polymerase eta (ScPolη) (S. cerevisiae, UniProt Q04049 1-632).
T1 construct: DNA polymerase eta (Rad30) of S. cerevisiae; also called Rad30; ScRAD30; source: S. cerevisiae YRP654 (protease deficient), GAL-PGK-GST-ScRAD30 construct, purified by the same protocol as PCNA
T1 sequence (looked up): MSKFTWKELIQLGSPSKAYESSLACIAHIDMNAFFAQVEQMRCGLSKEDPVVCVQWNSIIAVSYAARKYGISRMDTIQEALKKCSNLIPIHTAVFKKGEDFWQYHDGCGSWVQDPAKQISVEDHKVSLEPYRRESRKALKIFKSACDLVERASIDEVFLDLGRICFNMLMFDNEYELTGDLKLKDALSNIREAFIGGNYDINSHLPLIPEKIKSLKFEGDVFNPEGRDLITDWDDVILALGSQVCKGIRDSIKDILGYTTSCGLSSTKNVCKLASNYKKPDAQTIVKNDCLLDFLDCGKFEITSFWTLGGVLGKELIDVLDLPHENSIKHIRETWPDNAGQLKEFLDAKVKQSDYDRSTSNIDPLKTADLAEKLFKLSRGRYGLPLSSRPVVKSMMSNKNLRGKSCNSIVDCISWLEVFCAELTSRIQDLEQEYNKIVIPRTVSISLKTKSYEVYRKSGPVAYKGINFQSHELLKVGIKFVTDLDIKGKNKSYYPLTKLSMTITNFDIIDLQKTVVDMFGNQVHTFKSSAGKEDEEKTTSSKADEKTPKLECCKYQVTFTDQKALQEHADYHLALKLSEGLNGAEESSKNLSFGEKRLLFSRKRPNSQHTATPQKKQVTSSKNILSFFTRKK
As to the kind of experiment: SPR; Bio-Rad XPR 36; CaPCNA, ScPCNA or BSA (~350 RU) amine-coupled on a GLC chip; ScPolη injected at 25-500nM; 25 mM HEPES pH 7.5, 10 % glycerol, 200 mM sodium acetate, 8 mM magnesium acetate, 1 mM DTT, 0.005 % Tween-20, 0.2 mg/ml BSA; 20 °C; 1:1 Langmuir fit. Particulars: both partners purified. (In SPR one partner is held on a chip, and binding of the other changes the refractive index at the surface.)

Series [4] deals with T1, Yeast DNA polymerase eta (ScPolη). The experiment in a line: SPR. Conditions: both partners purified.
Series [5] deals with the molecule itself. As to the kind of experiment: cross-linking; about 20 μg protein in 20 mM HEPES pH 7.5 with glutaraldehyde, 5 min at 37 °C, then 12 % SDS-PAGE.

Usually stoichiometry N stands for a count of units in the complex or per binding partner. Turning to “Candida albicans PCNA G178S mutant (from UniProt Q5AMN0 1-259) (natural protein)”, in series [1], the stoichiometry N was 2.

B1: Saccharomyces cerevisiae PCNA (ScPCNA), wild type (natural protein, S. cerevisiae)
chain: MLEAKFEEASLFKRIIDGFKDCVQLVNFQCKEDGIIAQAVDDSRVLLVSLEIGVEAFQEYRCDHPVTLGMDLTSLSKILRCGNNTDTLTLIADNTPDSIILLFEDTKKDRIAEYSLKLMDIDADFLKIEELQYDSTLSLPSSEFSKIVRDLSQLSDSINIMITKETIKFVADGDIGSGSVIIKPFVDMEHPETSIKLEMDQPVDLTFGAKYLLDIIKGSSLSDRVGIRLSSEAPALFQFDLKSGFLQFFLAPKFNDEE
notes: PCNA (POL30) of S. cerevisiae; The cloning of the bacterial ScPCNA construct is not described; also called yeast PCNA; ScPol30; source: E. coli BL21-DE3, purified (glutathione beads, eluted by Prescission protease)
One may read the Kd as the equilibrium constant for the complex coming apart. Usually koff stands for the rate constant with which the complex falls apart. For the molecule B1, the “stoichiometry N” value in series [2] stood at 3. In series [3], this molecule gave a Kd of 80.1 nM and an off-rate (koff) of 0.00138 s⁻¹.

B2: Candida albicans proliferating cell nuclear antigen (CaPCNA), wild type (natural protein, Candida albicans SC5314, UniProt Q5AMN0 1-259, looked up)
chain: MLEGKFEEAALLKKVVEAIKDCVKKCNFNCSEHGITVQAVDDSRVLLVSLLIGQTSFSEYRCDRDVTLGIDLESFSKIIKSANNEDFLTLLAEDSPDQIMAILEEKQKEKISEYSLKLMDIDSEFLQIDDMEYDAVVNMPSSDFAKLVRDLKNLSESLRVVVTKDSVKFTSEGDSGSGSVILKPYTNLKNERESVTISLDDPVDLTFGLKYLNDIVKAATLSDVITIKLADKTPALFEFKMQSGGYLRFYLAPKFDDDE
notes: PCNA (POL30) of Candida albicans SC5314, orf19.4616 of the Candida Genome Database, 259 amino acids; the orf was amplified from genomic DNA with primers from the start to the stop codon; A few residues of the Prescission site and the cloning site may remain at the N-terminus after cleavage; also called orf19.4616; CaO19.12086; source: E. coli BL21-DE3, purified (glutathione beads, eluted by …)
In series [4], B2 came in with a Kd of 10.6 nM and a koff of 0.000166 s⁻¹. In addition, in series [2], the “stoichiometry N” value was found to be 3. Besides, the “stoichiometry N” value in series [5] turned out to be 6.
